Assay results published in US20100172938A1 (NEDERLANDSE ORGANISATIE VOOR TOEGEPAST …, published 2010).

Experiments:
[1] = target: the molecule itself; assay: SDS-PAGE and western blot, self-association (dimer)
Description: To get further insight in the structure of SAN, vectors were constructed encoding C-terminally (SAN2, 4 and 6 carrying the first 159, 149 and 113 amino acids) or N-terminally truncated peptides (SAN7, 3 and 5 comprising the last 177, 151 and 141 amino acids). The truncated His-tagged genes were expressed in E. coli and the peptides SAN2, SAN4, SAN6 and SAN7 were purified by affinity chromatography. The peptides SAN3 and SAN5 were produced at very low levels and could not be purified probably due to increased sensitivity to E. coli proteases.
Three DNA fragments encoding C-terminally truncated SAN peptides were amplified by PCR with pBK1 (Boot et al., 1993) as template. Primer CEA1 (5′-[…]-3′, forward: SEQ ID NO. 26) was used in combination with primer SANA1 (5′-[…]-[…]-3′, reverse: SEQ ID NO. 27) to amplify SAN2, SANA2 (5′-[…]-3′, reverse: SEQ ID NO. 28) for SAN4 and SANA3 (5′-[…]-3′, reverse: SEQ ID NO. 29) for SAN6. Fragments encoding three N-terminally truncated peptides were amplified using primer SANB1 (5′-[…]-[…]-3′: SEQ ID NO. 30) for SAN3, SANB2 (5′-[…]-TT-[…]-3′: SEQ ID NO. 31) for SAN5 and SANB3 (5′-GGGGGG-[…]-3′: SEQ ID NO. 32) for SAN7, all three in combination with primer SAN1 (5′[…]-[…]-3′, reverse: SEQ ID NO. 33) and the same template. The fragments were cloned in pGEM-T and sequenced. The fragments encoding SAN2, SAN3, SAN4, SAN5, SAN6 and SAN7 were excised as BamHI-HindIII fragments and introduced in vector pQE30ΔXN (Smit et al., 2001) in frame with an N-terminal six histidine tag. Expression of gene fragments and purification of the gene products was performed as described previously (Smit et al., 2001).

[2] = target: the molecule itself; assay: SDS-PAGE and western blot, self-association

Protein	binding result [1]	binding result [2]
SAN6, C-terminally truncated SAN peptide, His-tagged (other) RGSHHHHHHGSGTATTINASSSAINTNTNAKYDVDVTPSVSAVAANTANNTPAIAGNLTGTISASYNGKTYTANLKADTENATITAAGSTTAVKPAELAAGVAYTVTVNDVSFNFGSENAGKTVTLG	binds	
SAN4, C-terminally truncated SAN peptide carrying the first 149 amino acids, His-tagged (other) RGSHHHHHHGSGTATTINASSSAINTNTNAKYDVDVTPSVSAVAANTANNTPAIAGNLTGTISASYNGKTYTANLKADTENATITAAGSTTAVKPAELAAGVAYTVTVNDVSFNFGSENAGKTVTLGSANSNVKFTGTNSDNQTETNVSTLKVKLDQNGVAS	binds	
SAN2, C-terminally truncated SAN peptide carrying the first 159 amino acids, His-tagged (other) RGSHHHHHHGSGTATTINASSSAINTNTNAKYDVDVTPSVSAVAANTANNTPAIAGNLTGTISASYNGKTYTANLKADTENATITAAGSTTAVKPAELAAGVAYTVTVNDVSFNFGSENAGKTVTLGSANSNVKFTGTNSDNQTETNVSTLKVKLDQNGVASLTNVSIANVY	binds	
SAN7, N-terminally truncated SAN peptide, His-tagged (other) RGSHHHHHHGSGTSANSNVKFTGTNSDNQTETNVSTLKVKLDQNGVASLTNVSIANVYAINTTDNSNVNFYDVTSGATVTNGAVSVNADNQGQVNVANVVAAINSKYFAAQYADKKLNTRTANTEDAIKAALKDQKIDVNSVGYFKAPHTFTVNVKATSNTNGKSATLPVVVTVPNVAEPTVASVSKRI	binds	
SAN, crystallisation domain of SA-protein (amino acids 1-290), His-tagged (other, Construct from Smit et al. 2001; not shown: His-tag (detected with anti-his antibody)) ATTINASSSAINTNTNAKYDVDVTPSVSAVAANTANNTPAIAGNLTGTISASYNGKTYTANLKADTENATITAAGSTTAVKPAELAAGVAYTVTVNDVSFNFGSENAGKTVTLGSANSNVKFTGTNSDNQTETNVSTLKVKLDQNGVASLTNVSIANVYAINTTDNSNVNFYDVTSGATVTNGAVSVNADNQGQVNVANVVAAINSKYFAAQYADKKLNTRTANTEDAIKAALKDQKIDVNSVGYFKAPHTFTVNVKATSNTNGKSATLPVVVTVPNVAEPTVASVSKRI		binds
